Data set [1] deals with T1, potato lectin (Sigma) (potato, UniProt Q9S8M0 23-323).
T1 construct: Bought glycoprotein, coated on ELISA plates
T1 sequence (looked up): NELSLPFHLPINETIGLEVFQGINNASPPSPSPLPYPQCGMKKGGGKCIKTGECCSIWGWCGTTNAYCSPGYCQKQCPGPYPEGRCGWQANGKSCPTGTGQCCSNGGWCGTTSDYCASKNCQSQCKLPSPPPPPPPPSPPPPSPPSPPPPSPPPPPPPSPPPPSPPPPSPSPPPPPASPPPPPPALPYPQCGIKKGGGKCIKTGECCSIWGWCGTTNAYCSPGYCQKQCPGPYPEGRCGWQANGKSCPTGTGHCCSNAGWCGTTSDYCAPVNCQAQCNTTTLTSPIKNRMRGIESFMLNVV
The experiment in a line: microcapsule retention; C: carboxyl capsules, EDC/Sulfo-NHS, 1 ug VHH/cm2; potato lectin coat 10 ug/ml; 10% coverage.

Data set [2] concerns the target T1, potato lectin (Sigma). The experiment in a line: microcapsule retention; D: carboxyl capsules, EDC/Sulfo-NHS, 0.1 ug VHH/cm2; potato lectin coat 10 ug/ml; 100% coverage.
Data set [3] addresses T1, potato lectin (Sigma). The experiment in a line: microcapsule retention; H: amine capsules, BS3 one-step, 0.1 ug VHH/cm2; potato lectin coat 10 ug/ml; 100% coverage.
Data set [4] addresses T1, potato lectin (Sigma). The experiment in a line: microcapsule retention; G: amine capsules, BS3 one-step, 1 ug VHH/cm2; potato lectin coat 1 ug/ml; 100% coverage.
In data set [5] the target is T1, potato lectin (Sigma). The experiment in a line: microcapsule retention; C: carboxyl capsules, EDC/Sulfo-NHS, 1 ug VHH/cm2; potato lectin coat 1 ug/ml; 100% coverage.
Data set [6] has as its target T1, potato lectin (Sigma). The experiment in a line: microcapsule retention; L: amine capsules, BS3 two-step, 0.1 ug VHH/cm2; potato lectin coat 10 ug/ml; 100% coverage.
Data set [7] deals with unrelated antigens. The experiment in a line: VHH-coupled Uvitex microcapsules retained on wells coated with unrelated antigen; 4% surface coverage.
A further data set addresses T2, potato lectin (Solanum tuberosum, UniProt Q9S8M0).
T2 sequence (Q9S8M0 23-323): T1 sequence (looked up)
The experiment in a line: ELISA-like assay of VHH-coupled microcapsules on antigen-coated wells. As to conditions: microcapsule binding assays. On the procedure:
An ELISA-like assay setup was used to evaluate the interaction of VHH-coupled microcapsules to antigen-containing surfaces. ELISA plates (Maxisorp (Thermo Scientific Nunc) or high bind half area microplates (Greiner Bio-One)) were coated with gum arabic or potato lectin. Coatings were performed overnight with 100 μg/ml gum arabic or potato lectin in PBS. Control wells included blank wells or wells coated with unrelated antigens. Plates were washed three times with PBS with 0.05%-TWEEN®-20 and blocked with 5% skimmed milk in PBS for 1 to 2 hours. VHH-coupled lambda cyhalothrin-containing or Uvitex-containing microcapsules were diluted to appropriate densities in 1% skimmed milk in PBS with 0.05%-TWEEN®-20. Microcapsules were added to the antigen-coated or control wells and allowed to bind for 1 hour. Unbound microcapsules were removed by washing five times with PBS with 0.05%-TWEEN®-20. The bottoms of ELISA plate wells were analyzed for bound microcapsules on a macrozoom microscope system (Nikon). Microcapsules were counted using Volocity image analysis software (Perkin Elmer). A DAPI filter was used to visualize Uvitex microcapsules. White LED illumination and bright field pictures were used for lambda cyhalothrin microcapsules. Controls for lambda cyhalothrin-containing or Uvitex-containing microcapsules included blank microcapsules and microcapsules to which unrelated VHH were coupled.
In general terms: An ELISA detects its analyte on a solid surface through an enzyme-linked reagent.

In data set [8] the test system is black nightshade leaf surface. The experiment in a line: VHH binding to leaf discs (microscopy). As to conditions: 5 μg/ml in PBS, anti-histidine Alexa-488 detection. On the procedure: (§1) VHH binding to non-fixed leaf discs of potato (variety Désirée), black nightshade, grass, wheat or azalea was investigated. For comparison, binding of CBM3a to non-fixed leaf discs of potato (variety Désirée) was analyzed in parallel. Leaf discs were prepared by punching a fresh potato leaf with a 5 mm belt hole puncher tool. Leaf discs were put immediately in wells of a 96-well plate containing 200 μl per well 5% MPBS or PBS, and incubated for 30 minutes. Leaf discs were transferred to solutions containing 5 μg/ml VHH antibody fragment, respectively 5 μg/ml CBM3a in 2% MPBS or PBS and incubated for 60-90 minutes. Unbound VHH or CBM3a proteins were removed by washing three times with 2% MPBS or PBS. Bound VHH or CBM3a proteins were detected with incubation with monoclonal mouse anti-histidine antibodies directly conjugated with Alexa-488 fluorescent dye (Abd Serotec) in 1% MPBS for 1 hour. Unbound antibodies were removed by washing three times with PBS. Leaf discs were put on glass slides, covered with cover slips, and analyzed by microscopy or on a macrozoom microscope system (Nikon) or a SP5 confocal microscope system (Leica).

Another data set concerns grass leaf surface. The experiment in a line: VHH binding to leaf discs (microscopy). As to conditions: 5 μg/ml in PBS, anti-histidine Alexa-488 detection. On the procedure:
as §1

The target of data set [9] is unrelated antigens. The experiment in a line: VHH-coupled lambda-cyhalothrin microcapsules retained on wells coated with unrelated antigen; 4% surface coverage.
In the next data set the test system is potato leaf discs. The experiment in a line: VHH binding at different temperatures. As to conditions: 5 μg/ml in PBS; temperature range from 4° C. to 55° C. Details: species or system potato (variety Désirée). On the procedure: In order to test applicability of VHH as binders for greenhouse or field applications where binding supposedly may occur at different and sometimes even extreme temperatures, a leaf dip VHH binding experiment at different temperatures was used. Temperatures used were 4° C., room temperature, 37° C., 55° C., or 70° C. ø 8 mm potato leaf discs (variety Désirée) were cut using a puncher tool. The leaf discs were equilibrated to different temperatures by washing three times with PBS at different temperatures. Hexahistidine-tagged VHH were diluted to 5 μg/ml in PBS at different temperatures, added to the corresponding equilibrated leaf discs, and binding of VHH was allowed for 1 hour at different temperatures. After incubation with VHH, leaf discs were washed five times with PBS at room temperature. Bound VHH were detected by incubation with monoclonal mouse anti-histidine antibodies directly conjugated with Alexa-488 fluorescent dye (Abd Serotec) in PBS for 1 hour at room temperature. Unbound anti-histidine antibodies were removed by washing five times with PBS at room temperature. Leaf discs were analyzed for bound VHH with microscopy. […] Please note that leaf discs severely suffer when submerged in PBS at 70° C. for 1 hour but that binding of VHH was still detected.

The target in data set [10] is unrelated antigens. The experiment in a line: VHH-coupled Uvitex OB microcapsules retained on wells coated with unrelated antigen; 20% surface coverage.

For the molecule Control VHH, the microcapsule counts (microcapsules) is 50 with potato lectin (Sigma) [1]; 475 with potato lectin (Sigma) [2]; 780 in the data set with potato lectin (Sigma) [3]; 46 with potato lectin (Sigma) [4]; 193 in the data set with potato lectin (Sigma) [5]; 787 with potato lectin (Sigma) [6].

B1: VHH 3E6 (VHH)
VHH: QVQLQESGGGLVQPGGTLSLSCAASGFNVRWYGMGWFRQAPGKEREGVACISALQETTAYADSVKGRFTLSRDNPKNTLSLQMNNLQPEDTGVYYCATTDCDDSSRMTYTSYLGQGTQVTVSS
notes: also called Monovalent VHH 3E6
On to B1, for which, in the data set with unrelated antigens [7], the surface area of bound microcapsules is 5.01. The “binding to antigen-coated surfaces when coupled to a microcapsule” value with potato lectin was “capable of binding specifically to antigen-coated surfaces”. In addition, the “binding to surfaces with unrelated antigens when coupled to a microcapsule” value with potato lectin is reported as “No significant binding”. Besides, the “binding to native black nightshade leaf surface” value was “binding leaf surface, glandular trichomes, and leaf hairs” in data set [8]; “bind specifically” in data set [8] (listed as 3E6). The “binding to native grass leaf surface” value was “binding to leaf surface and wounded plant tissue” in the data set with grass leaf surface; “bind specifically” with grass leaf surface (listed as 3E6). The counts of bound microcapsules (microcapsules) in the data set with unrelated antigens [9] was determined as 386. In addition, the “binding to leaf discs at different temperatures” value with potato leaf discs was “showed detectable binding”. Further, the area of bound microcapsules in the data set with unrelated antigens [10] turned out to be 47.9.

The record behind these values is patent US20130217572A1, “SPECIFIC DELIVERY OF AGROCHEMICALS” (VRIJE UNIVERSITEIT BRUSSEL, priority 2010, published 2013).
